Experimental findings from paper PMC7588467 are described below.

This assay deals with OP protein cage. In words: cryo-EM structure; OP cages empty, with SDS (800 equiv.) or with SDS:CS, in TSEC buffer; octahedral symmetry imposed; rigid-body fit of the OP crystal structure (PDB 6FDB).

Regarding OP protein cage, the stoichiometry N (monomers per cage) was determined as 24.
